Measured values: the NTF2 design screens of Basanta et al. (2020)

experiment: protease stability score; higher = more stable; yeast display proteolysis, trypsin and chymotrypsin;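 also: relative to predicted unfolded state with 0 unfolded-like and 1 meaning tenfold more protease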

| Sequence | protease stability score |
| --- | --- |
| DEILHAWSRALTILLEIWKTGNEEEVEKMFDPNTRLIIGDKILHGREHIEDFVRRVDVADMHEFRVHDSHKYGEKIDIDGHVTGRLVIGDKEVRQETRVRSIIIKVDGKWIIHRLTFI | 0.907 |
| THEEEQARRALKHLIELEKTGDEEKWSHLADPNVRMEINGRQVHGRETIRKIYHEWRRKLGVNHIHHIEIKHIDIQGEKLRVEMHVNSQYGDKTLLIETEIELDKIDGKWIITMHYER | 1.15 |
| SEEEEDAERAERLIFEYHRTGDERLFRELVDPNVRLRVGDKEYHGREDFLRIMLELRIDRMHLHEIRVVDGRVHSRTEVDGTWNGRKFLTETESIIIKINGRWVLHSFHFH | 1.69 |
| SEEEEEAHKFIEDWRTALETGDFDSIKELIDPNVRLHIGDKDLVGREEWVRELRRRKERYKGLRLKVHIKHVDIFDGRLIVDAEIRIDIGDKHLHYRVHIFVHKVNGRWQMKRYEEE | 2.57 |
| SEEHEDIKKFLDDLHSAWNTGDWKALEHMLDPHVKFEINGRNFVGREEVRKLLEQIRLHPRSEIKDVRMQGEFVIVDGRVKIKINVNGREHHEVQEIILYLRKVNGKWYIEEIEIR | 1.54 |
| DEHTKFLEKLLRDWMESVLTGDEHLIKRYADPNVRLDFNGQQFHGRDSMVHLLKEWRIKHFKLDSFFAIDGVTFVDGESRGEVNGQETENRLHVEIFVVNGKVTHVKIRIL | 1.68 |
| SEEEEWAHELMRLLIEFNETGDEHELHNLIDPNVRIVIGEYTIIGREIAIEWTRQARIKRVHIEDYRFQGDKLHVDSRSNGKYGDKEDTLKVEIIVEKINGKWVVREVRVK | 2.06 |
| DEEEEETHEYMRLLVRLFLTGDEEVFDRLADPNRRLKWNGREYHGREQTNRVWRELGVKHRRIEDIKMQGDKVVIEGTVHIGDKTLRTTVSFVIIDGRTKSIEIRDI | 1.46 |
| DEEREFSERAIEMSLEDWLTGDEHRMHRMLDPHVRLDIDGRDIIGRERMTKIIFEINKTLGVDHVEFHDHEIQGDKVHSHLDVHINGRRLRITLHLYKIDGRWQIREVKVV | 1.13 |
| EEEDREFEERWKEFEHAMRTGDEDSLEENLDPNVRFLFDGQEIVGRELTSKFIAEWLRSLGVEKVTIFMRRFHVIGDKVTVDGAFEVNGVHIRTIVYSKKVNGRWFNKSEEFR | 0.733 |
| SEEDKESEEAFKIAKELLETGDEDLHKHLFDPNARLVVGDKHHHGRELLVKFWSDFGIDHIEIHDIKLVNGRLDTDTTVRFNGRTLKMRIIIIKVNGKWEIKSMTVH | 0.667 |
| DEQERAYELALRTIEHDLRTGDEKSLQENADPNTRLLVGDKELVGWELFIKLMREIRIRHIEVRHMEVQGNKLIFDGKVDGEIGDKRVEYETEIILEKVDGQWRIKEKRLH | 0.862 |
| DDHEKRLEEYMKHWFENLMTGNEERLHELADPNARFHLHFENHEVDLIGREDIIKWWREFLHRVKNIRHHLDHLEIQGEKSHLDMTLNIDGKEYRVRIIVVIVNGKIHKVIVDIR | 2.23 |
| DEEERDLQQFIEEWWKTLVTGDEHLIERYLDPHVRMDWNGRELHGREAIADTIKKYVDEIRLEVRINHVRFQGDKVDIDGEIVERQGDKTRHLNFELEIIVVNGRAQEIRVRLR | 1.48 |
| SEEDHIMEELARIFWKLMTTGDFDTLEHLMDPHTRLEVNGRIFVGREASEELWRFYKNVRTEIEDVKAQGDKNHIKGHQKFNGREKTVHIHLTIVDGRLKSMSIKEH | 2.23 |
| SEHDDLIRHYAERIRKSLLTGDEHDLTELLDPNTYFEVRIGDFTLKAHGWERVHEVLDMINENLGIKHDDIQHIEWYGDKIHIDTRVRIGDKEIHTEVIIVVINGKVSKIEHRVI | 0.45 |
| SDEEREFDIAFHLMRHVERTGDPHDMTKMADPNVRVDINGVEVVGREQLREEMRKLGVKYSHVEDFRTFDGRVILHGTLEINGQRRNTEIYASKINGRWHVEEYRFR | 1.14 |
| SEEEELVRQWLERTTEALLTGDEEYVLHLADPRTRFDVGDKEIHGMEEFLKRHLQLRIHHMHWEVTEIRLIDGVARSTGTLEIIMQQGDKRFRVRIRSEVISEKIDGRWRLRSIKIH | 1.44 |
| DETKEKVRIALELLETLHRTGDEDKFLELADPHYQLHINGQTVIGRETIYELLVRFLHHLGATSEVRIRSVDWQGDKIIVDMRLHFRVGDKSFEIQVHIYILKVNGKWLIESIEIR | 1.68 |
| HEREEWSENAFRMILRSLMTGDERTLYELADPNVRLDVNGQDYHGREDFLHFYTHFLFRADHVELILRRERPVGDKLELDGELVSRVGDKTHHVEVRIVLWKVNGRWLIHSVYII | 1.81 |
| TESEKMALIAIEIIFHDLLTGNEESLIKLADPDVQLHYGDKTFHGREEFHKLYSEIIKRYDHIEVLIRDIRVQGDKMHVKEELNLVINGKTVHLESNRTSLKYNGRWHLKSVHLH | 1.26 |
| DEDREMVEEVIRERLEDLKTGDWKKLADLADPHVRLDVGDKEYHGREEFTKTFTDILRILGHSNIQTDLKHIDFFDGRLDVHQTVHIGDKTIHHQILFHKFDGKWKITEMRITIR | 0.928 |
| LEEEEETKEMNDKMRHVMETGDEDSFRKLADPHVRVDINGREFHGMDNAAEIMSHLRIHKFHVHDTRNINGKVQVESRLTRIIDGKKQHVRTEWIIVKIDGQWIFREWIVK | 0.58 |
| SEEERHIKEFTRRLLHVFITGDEHELKELFDPNTRSIFNGVDVHGWKEITRFIREIREKEVRIRDVKVFNGRVHLEGHSNMEWNGQERRSDVEMHFDVINGQVHEIEIRIR | 1.17 |
| DEEKEEYNRKAKEFWQRWLTGDEKRLRELADPNVRLDIDGVELVGREEFVHAVHEFLRHIRFKDMKVHRTDNIDGKNESDFEVTGDVNGQDMKSRTHVLILLVNGKIKEVEHRWK | 0.222 |

| Sequence | protease stability score |
| --- | --- |
| TEEDKMEHDYAKLFMFLERTGDETLFEKLVDPDVKHIFDGVHLHGREEVASFLHHLLREWRIHHIDLKRVDVVNGKIEIDGRRNGDFDGKRYETHFTIHVFLYDGRIKWFEIRIR | 1.46 |
| NEEQKEAEDFMRMVSRIHETGDEDSLRRYFDPNVRIKDENHHLHGWKELIHWTHRVDHIEVRVKNVDIQGDKIHLDGEEIVRIDGVEVRRRVLFILTKVNGRWHIQEIRIE | 0.72 |
| SEDEHLADHFLRLQRKHIDTGDEDSFDRMIDPRAKFDIDGQEFHGREWSEWVKKRFDHVHIERIITRKFHVVDGRAEFHVDYDGRLNYNGVEVRVTLKQITIIEKIDGRWYVRSESIK | 0.656 |
| TEEERDMKHLAELALESFLTGDFEIIKKLADPNVRSVIDGRDYHGMEEVHRYLEELLRMLGVKVSRIEDERLRIINGRVTVETDIRLNVDGKIFRVTLHFFFHKFNGRWRIEEIRIHIE | 0.537 |
| DEDRKEAERIARQTLHDLRTGNEDMLTKLLDPHARIDVNGVDNIGWEIIVKHVKERRHQWRIHHEHWRDYHFINGVIHIDLEVHIRVDGVDIRTETRVHILIINGRLREIRVEVD | 0.772 |
| DDRDEVVEVASRLWMEIVETGDEDLFIRLLDPRTRIHIGDKTLHGREQVLDFLREHNRNLGIDRVEVRVERTEIQGEKVVVHSINIFNGKEWHVITIAHKINGRWITKEFHLH | 0.834 |
| SEEEEILRIALEIFIHLWQTGDEDMLKHYADPEVRVHFDGRDYHGMNDLQFFVHELRKRYPGIRLHIEHVEIEVYNGRVFIIIHQRLDFNGQVITEEVRLIVIKINGRWDIHSVKYHSH | 0.756 |
| DEEERKMEEALRLMKTTHDTGDWDLERELFDPNVKMDINGRELHGRRHWEKLRKDFGLDNIRFTLRHIDSQGDFILIRGDVEINGVRLDVIIIAEKINGRWIVREVRLR | 0.718 |
| DHMERLLKHVARLFIHALHTGDESILTDLLDPNVRVHIHIGDKEIRLHGREHVRHYLEHELTHWRTEFHLTHFDIVGNKFENHTNVIIRIDGVEIRLDRRHEVVLYDGKIEEVIVRVE | 2.37 |
| HEDEHLSRRFAELVLTYLETGDEDSILEMADPHVRTELIIGDKTFRYIGRENLERWLHEVLRKFKNLRFVPKRLHIQGDKVIMRGYVIFDGRTHETEMIWIVINGRIHAVLHHEH | 1.81 |
| DEEEDAKKFVLDVWRETLETGDEKLLLELIDPHVRIIIGDKEDHGRETLLHHFREIRFEDFQVRDIRVIGEKIHIHGEHLIRFDGRRVRLEIEIIMTKINGRWLVEEIRIR | 2.58 |
| SEDEQHLRRMLKVWDTAVKTGDEHLLDRLADPDVRIDINGVELHGREELERMLKQMRIEFEDSDLNHVHIQGDKIHADTEVVVIIIINGREERRRLRIESIVWKVNGRWHFKEFRFK | 1.4 |
| SHEDELSRHILETWKEILDTGDEHTEHELADPNTRIEVDGRDIMGWHAWNHFLRKMGIKHIHFERVSIQGNKIHIDGIMEFDGRRRKTDIDLHVVNGRIESIRYEVK | 1.63 |
| DENEEDSKRAVELIEDSMKTGDEELMTKQMDPNVRVDYNGKEHHGWEHAKRWFHLMGVDHLHLHRVRLINGVVHLDVDSRINGREFKVHITALKVDGQWVLKEISIR | 1.26 |
| NEEFRDAQMAAHEFINVMETGDEHLLSRRLDPNMRVDINGREFHGWEQWVRIFREIRVKSIRYEEIRVQGDKVHLHTRLHVTIGDYEFTTETTIFIDKINGVWYIKEFHMN | 0.253 |
| HESHNRVERILEEFFKAVETGDWRVLHELLDPHVRLDVDGRDHHGREDFSRFMKEIRVEEFRVTHLQIQGDKANVQSHRVGTYNGKRQEIRTWIHITKIDGQWYITEVTME | 0.544 |
| DEEMQLAEEMSRKFLHNWHTGDWRIMSHLIDPDVKIIIVVGDKRIELHGRENFVKEIIRWLHHLRETDRRVDHLRIQGDKAHVRVTVHVRYGDKTMDLDEDIRILVVNGKIHSIEIIQV | 1.02 |
| DERDELLEHVIKLHQDALRTGDEHTLTELMDPHVRVIIGDKHHHGWESITKYLRELRFHSHEVHIDHVHIFNGRIHADITLRGTHHFNGRTFHDTHKVELINTKINGKWTIESLIIR | 1.15 |
| SEIERESKIFSKIEKHVWETGDEKILSEMADPHARIEIGDKEHHGREEFEKVAHEIVEFFPNMRFRVEHMDVQGNKVDLDTRLHFENHSHRYQVISLKFNGRWLIKSVKIE | 1.08 |
| RDIRELTLMMTKLIRKTDKTGDPRIAHELADPHYRFDFDGVEYHGREIVQHWMEKYPNVRFKVRHVDIVGDKARIEGTDNVDGQEIDTEYRVSKVDGRWHLEEIIFR | 0.487 |
| DEEEKRIEEIARLIFKLWHTGDEEHFLRLADPHVRLNVDGRELHGRERVKHWLHELRHRVDHITDYKEKHKENQGEFFVQWGVLDVHVDGKNVRTRVRIEIVVIDGKINEVRIEVH | 1.36 |
| SEHDEELERWARLILHLLYTGNEEELRKMMDPDVRLNVNGRELHGWKKAMELWRIIKEHLRIHHVDIHDIDVFDGRNHVDIRINTNINGQEYIYKTEIIIVIIDGRMRSHEVRVK | 1.74 |
| DHDEKWAREVIRLLIEDIVTGDEESLSKLFDPHVRIEIGDKEHIGMEIALKLMIELWERLGVKHIHFHMSDIRVYDGRLDVDSRLHHVVNGRKHETKVRIFIRKINGRWVIESLVIH | 2.25 |
| DEDREAMEELVRRTLKASSTGDEELSDQLMDPNTRIEVNGKHLIGREMWIKFLVELRIIFHEVHVHDVRSVGDKVDADVHVIFELRINGKRIDIETRVTFYFRKINGRWLVKSIRFE | 1.07 |
| SEEHEEVERLMRIYFEERLTGDWDRWLSNVDPHTRIIIEIGDKRIELHGWKDFLRFLRFIKNITIHHVHIRHVDVQGDKAHVDEEIDVTIGDKRTKITHEMIIIVVNGRIKHVYERYI | 1.44 |
